± gives the uncertainty stated by the source.
Assay: self-splicing fitness, log relative to wild type (ln ratio); higher = more splicing; Tetrahymena group I intron in knt gene, E. coli kanamycin selection, DiMSum; sequences stand for … in CUCUCU…GGAGGGAAAAGUUAUCAGGCAUGCACCUGGUAGCUAGUCUUUAAACCAAUAGAUUGCAUCGGUUUAAAAGGCAAGACCGUCAAAUUGCGGGAAAGGGGUCAACAGCCGUUCAGUACCAAGUCUCAGGGGAAACUUUGAGAUGGCCUUGCAAAGGGUAUGGUAAUAAGCUGACGGACAUGGUCCUAACCACGCAGCCAAGUCCUAAGUCAACAGAUCUUCUGUUGAUAUGGAUGCAGUUCACAGACUAAAUGUCGGUCGGGGAAGAUGUAUUCUUCUCAUAAGAUAUAGUCGGACCUCUCCUUAAUGGGAGCUAGCGGAUGAAGUGAUGCAACACUGGAGCCGCUGGGAACUAAUUUGUAUGCGAAAGUAUAUUGAUUAGUUUUGGAGUACUCGUGGUCG
How it was run: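 DiMSum derived fitness as the error-weighted combination of fold changes across replicates, kanamycin versus no kanamycin, normalised to wild type. E. coli BL21(DE3) held the library, which randomised all eight P1ex-region intron nucleotides within the knt kanamycin-resistance gene on pET-22b(+). Six replicate transformations grew overnight at 37°C or 30°C on LB agar with or without 25 μg/mL kanamycin, also containing 100 μg/mL carbenicillin, 50 μM IPTG and 0.2% rhamnose, and pooled colonies were amplicon-sequenced on an Illumina HiSeq 2500.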

| Sequence | self-splicing fitness (ln) (30 °C) | self-splicing fitness (ln) (37 °C) |
| --- | --- | --- |
| ACUAAGCAAUAUUACGUUUC | -4.35 ± 0.26 | -1.85 ± 0.19 |
| CCGGAGCAAUAUUACGGUGU | -3.21 ± 0.16 | -2.13 ± 0.19 |
| UUAUAGCAAUAUUACGUCUC | -3.25 ± 0.33 | -2.13 ± 0.3 |
| CCCCAGCAAUAUUACGCACU | -4.21 ± 0.33 | -2.68 ± 0.22 |
| ACGCAGCAAUAUUACGUGAA | -2.62 ± 0.15 | -1.01 ± 0.13 |
| ACCUAGCAAUAUUACGUAAC | -2.22 ± 0.12 | -1.66 ± 0.18 |
| CUGGAGCAAUAUUACGGCUU | -4.3 ± 0.42 | -2.68 ± 0.33 |
| GCGUAGCAAUAUUACGACGU | -3.1 ± 0.16 | -1.45 ± 0.28 |
| CGGUAGCAAUAUUACGCUAG | -2.28 ± 0.34 | -0.219 ± 0.24 |
| CAGCAGCAAUAUUACGCAUC | -2.71 ± 0.12 | -1.16 ± 0.1 |
| GUAGAGCAAUAUUACGGUGA | -2.14 ± 0.13 | -1.09 ± 0.2 |
| AUAGAGCAAUAUUACGGGCG | -3 ± 0.22 | -2.13 ± 0.31 |
| ACAAAGCAAUAUUACGUCCC | -0.873 ± 0.23 | -1.78 ± 0.25 |
| AUCAAGCAAUAUUACGAGGU | -3.52 ± 0.2 | -3.4 ± 0.33 |
| AACAAGCAAUAUUACGUUCG | -2.86 ± 0.1 | -1.76 ± 0.13 |
| CUGAAGCAAUAUUACGGGCU | -3.56 ± 0.17 | -3.15 ± 0.21 |
| CAGCAGCAAUAUUACGCCAU | -3.12 ± 0.24 | -1.78 ± 0.21 |
| CGAUAGCAAUAUUACGUGCC | -1.8 ± 0.15 | 0.00354 ± 0.14 |
| UUUCAGCAAUAUUACGCUGC | -2.48 ± 0.31 | -1.14 ± 0.35 |

| Sequence | self-splicing fitness (ln) (30 °C) | self-splicing fitness (ln) (37 °C) |
| --- | --- | --- |
| CAGGAGCAAUAUUACGGGAG | -1.92 ± 0.18 | -0.745 ± 0.17 |
| GAUUAGCAAUAUUACGACUA | -0.765 ± 0.17 | 0.0117 ± 0.13 |
| CCCGAGCAAUAUUACGCAUU | -3.69 ± 0.33 | -2.22 ± 0.3 |
| GGCAAGCAAUAUUACGACUC | -0.319 ± 0.15 | 0.265 ± 0.17 |
| UUCAAGCAAUAUUACGGAAC | -3 ± 0.27 | – |
| UCUGAGCAAUAUUACGGUCG | -4.19 ± 0.33 | -2.67 ± 0.28 |
| CCAUAGCAAUAUUACGCGCU | -3.87 ± 0.27 | -3.05 ± 0.4 |
| AGCUAGCAAUAUUACGGAAG | -2.35 ± 0.086 | -1.34 ± 0.11 |
| GCCUAGCAAUAUUACGGAUG | -1.84 ± 0.11 | -0.882 ± 0.12 |
| AACAAGCAAUAUUACGUAGC | -3.1 ± 0.09 | -2.07 ± 0.1 |
| CUCAAGCAAUAUUACGGUGG | -2.01 ± 0.061 | -1.1 ± 0.081 |
| CCAGAGCAAUAUUACGGGAG | -3.51 ± 0.23 | -3.55 ± 0.3 |
| UCUUAGCAAUAUUACGGCUA | -2.85 ± 0.41 | -2.34 ± 0.42 |
| ACGCAGCAAUAUUACGAGCA | -1.58 ± 0.096 | -1.2 ± 0.11 |
| CGUUAGCAAUAUUACGACAU | -1.529 ± 0.015 | -0.592 ± 0.033 |
| CAACAGCAAUAUUACGAGAA | -2.7 ± 0.39 | -0.546 ± 0.21 |
| GUCUAGCAAUAUUACGGGCA | -3.1 ± 0.44 | -1.43 ± 0.21 |
| AGGGAGCAAUAUUACGCCAC | -2.47 ± 0.49 | – |
| CUGGAGCAAUAUUACGCUAU | -3.45 ± 0.38 | -2.67 ± 0.38 |
